According to patent US20260250352A1:
Where two headings read alike, the source gives them in different places. Each block holds one binder with its values, some of them ahead of it.

Experiments:
Test in all cases: cell-based or functional assay
[1] = biological target: APRIL + BAFF in combination (human)
[2] = biological target: single chain BAFF-APRIL-APRIL heterotrimer (BAA) (human) (UniProt Q9Y275)
[3] = biological target: recombinant human APRIL (human) (UniProt O75888)
[4] = biological target: APRIL + BAFF in combination (human); remark: listed apart in the source

Chain of single chain BAFF-APRIL-APRIL heterotrimer (BAA) (human) (Q9Y275 other isoform, or with tags, fused parts or gaps limits assumed): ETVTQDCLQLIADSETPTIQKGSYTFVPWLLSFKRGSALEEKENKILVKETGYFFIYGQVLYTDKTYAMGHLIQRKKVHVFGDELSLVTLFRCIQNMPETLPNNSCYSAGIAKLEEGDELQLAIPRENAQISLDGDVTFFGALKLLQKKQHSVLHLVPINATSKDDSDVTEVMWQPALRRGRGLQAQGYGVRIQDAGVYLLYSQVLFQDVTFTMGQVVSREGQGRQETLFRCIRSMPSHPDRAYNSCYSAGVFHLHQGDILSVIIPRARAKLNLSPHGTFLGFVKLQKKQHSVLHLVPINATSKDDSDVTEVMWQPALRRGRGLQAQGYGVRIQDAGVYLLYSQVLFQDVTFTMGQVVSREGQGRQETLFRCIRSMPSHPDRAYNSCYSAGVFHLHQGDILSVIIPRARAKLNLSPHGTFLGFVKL

IC50, Jurkat/NF-kB/TACI reporter [1]: 16.8 nM | IC50, TACI/Jurkat/NF-kB reporter [1]: > 200 nM
B1: Telitacicept, O14836 13-118 (Fc fusion, not shown: a dimerising Fc or GST)
chain: SRVDQEERFPQGLWTGVAMRSCPEEQYWDPLLGTCMSCKTICNHQSQRTCAAFCRSLSCRKEQGKFYDHLLRDCISCASICGQHPKQCAYFCENKLRSPVNLPPEL
modifications: here or on the partner: The drug is a disulfide-linked Fc-fusion homodimer. Only one TACI ECD arm is given, and the Fc is left out.

IC50, TACI/Jurkat/NF-kB reporter [2]: 0.144 nM | IC50, TACI/Jurkat/NF-kB reporter [3]: 5.1 nM
B2: Anti-APRIL mAb based on the published VIS649 (sibeprenlimab) sequence (antibody, INN chains, looked up, V domains shown)
VH: QVQLVQSGAEVKKPGASVKVSCKASGYTFTDYTIHWVRQATGQGLEWMGWIYPLRGSINYAQKFQGRVTMTADKSISTVYMELSSLRSEDTAVYFCARHGAYYSNAFDYWGQGTLVTVSS
VL: EIVMTQSPATLSVSPGERATLSCRASESVDNDGIRFLHWYQQKPGQAPRLLIYRASTRATGIPARFSGSGSRTEFTLTISSLQSEDFAVYYCQQSNKDPYTFGGGTKVEIK

IC50, Jurkat/NF-kB/TACI reporter [3]: 4.9 nM | IC50, TACI/Jurkat/NF-kB reporter [3]: 21.9 nM | IC50, Jurkat/NF-kB/TACI reporter [4]: > 100 nM | IC50, TACI/Jurkat/NF-kB reporter [4]: > 200 nM
B3: Anti-APRIL mAb based on the published BION-1301 sequence (antibody, INN chains, looked up, V domains shown)
VH: B2 VH
VL: B2 VL

IC50, Jurkat/NF-kB/TACI reporter [3]: 215000 nM | IC50 relative to TACI 30-110-Fc [3]: 55.8 | IC50, Jurkat/NF-kB/TACI reporter [4]: > 100 nM
B4: Belimumab (antibody, INN chains, looked up, V domains shown)
VH: QVQLQQSGAEVKKPGSSVRVSCKASGGTFNNNAINWVRQAPGQGLEWMGGIIPMFGTAKYSQNFQGRVAITADESTGTASMELSSLRSEDTAVYYCARSRDLLLFPHHALSPWGRGTMVTVSS
VL: SSELTQDPAVSVALGQTVRVTCQGDSLRSYYASWYQQKPGQAPVLVIYGKNNRPSGIPDRFSGSSSGNTASLTITGAQAEDEADYYCSSRDSSGNHWVFGGGTELTVLG

IC50, Jurkat/NF-kB/TACI reporter [1]: 1.39 nM | IC50, TACI/Jurkat/NF-kB reporter [1]: 3.1 nM | fold better IC50 than anti-APRIL mAb plus belimumab [1]: 3.5 fold | fold lower IC50 than telitacicept [1]: > 50 fold
B5: 26 TACI CRD2-Fc (Fc fusion)
chain: SLSCRKEQGEYYDHLLRDCISCASICGQHPKQCADFCENKLRSGSGGGGSEPKSSDKTHTCPPCPAPEAEGAPSVFLFPPKPKDTLMISRTPEVTCVVVDVSHEDPEVKFNWYVDGVEVHNAKTKPREEQYNSTYRVVSVLTVLHQDWLNGKEYKCKVSNKALPAPIEKTISKAKGQPREPQVYTLPPSRDELTKNQVSLTCLVKGFYPSDIAVEWESNGQPENNYKTTPPVLDSDGSFFLYSKLTVDKSRWQQGNVFSCSVMHEALHNHYTQKSLSLSPG
